Patent publication US20150299322A1 (Dana-Farber, published 2015)

What was measured:
[1] = biological target: T1, recombinant mRGMc-HIS (R&D) (mouse, UniProt Q7TQ32 33-393, limits assumed); test: ELISA, coated mRGMc-HIS
T1 construct: Bought from R&D; also called hemojuvelin; not shown: HIS tag
T1 sequence (looked up): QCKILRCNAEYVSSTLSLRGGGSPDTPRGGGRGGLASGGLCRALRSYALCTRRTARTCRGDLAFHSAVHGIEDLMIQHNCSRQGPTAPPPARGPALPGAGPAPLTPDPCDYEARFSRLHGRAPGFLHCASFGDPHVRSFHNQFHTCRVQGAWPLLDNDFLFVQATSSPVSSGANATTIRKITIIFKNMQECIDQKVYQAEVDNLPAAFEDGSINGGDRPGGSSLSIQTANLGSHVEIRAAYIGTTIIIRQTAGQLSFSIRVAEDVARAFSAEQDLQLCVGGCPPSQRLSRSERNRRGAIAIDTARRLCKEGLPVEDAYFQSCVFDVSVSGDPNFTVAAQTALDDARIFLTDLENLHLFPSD
Experimental: (§1) To examine RGMa/RGMb/RGMc and PD-L2 interaction, 96-well ELISA plates were coated with 2 or 5 μg/ml of recombinant mRGMa-HIS, mRGMb-HIS, mRGMc-HIS, or hRGMb-HIS (R&D). Then, serial dilutions of mPD-L2-hIgG1/IgA, mPD-L2-mIgG2a/IgA, hPD-L2-mIgG2a or control-Ig fusion proteins were added and incubated for 1h at 37° C. Fab₂ goat anti-hIgG-HRP (Jackson ImmunoResearch Laboratories) or rat anti-mIgG2a-HRP (BD Biosciences) at 1:1000 or 1:10000 were used for detection.

[2] = biological target: T2, recombinant mRGMa-HIS (R&D) (mouse, UniProt Q6PCX7 48-427, limits assumed); test: ELISA, coated mRGMa-HIS
T2 construct: Bought from R&D; not shown: HIS tag
T2 sequence (looked up): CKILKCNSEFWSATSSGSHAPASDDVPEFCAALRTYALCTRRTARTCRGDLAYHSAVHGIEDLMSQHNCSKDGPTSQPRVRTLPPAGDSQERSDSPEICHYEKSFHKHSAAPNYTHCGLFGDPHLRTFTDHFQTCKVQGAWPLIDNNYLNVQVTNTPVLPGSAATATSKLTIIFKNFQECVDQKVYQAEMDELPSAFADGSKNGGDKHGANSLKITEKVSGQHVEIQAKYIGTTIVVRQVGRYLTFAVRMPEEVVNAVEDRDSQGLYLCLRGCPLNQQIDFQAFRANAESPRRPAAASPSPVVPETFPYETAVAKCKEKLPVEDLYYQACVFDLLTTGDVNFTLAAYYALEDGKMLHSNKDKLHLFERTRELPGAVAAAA
Experimental: as §1

[3] = biological target: T3, recombinant hRGMb-HIS (R&D) (human, UniProt Q6NW40 46-413); test: ELISA, coated hRGMb-HIS, PD-L2-Ig in solution
T3 construct: Bought from R&D; not shown: HIS tag
T3 sequence: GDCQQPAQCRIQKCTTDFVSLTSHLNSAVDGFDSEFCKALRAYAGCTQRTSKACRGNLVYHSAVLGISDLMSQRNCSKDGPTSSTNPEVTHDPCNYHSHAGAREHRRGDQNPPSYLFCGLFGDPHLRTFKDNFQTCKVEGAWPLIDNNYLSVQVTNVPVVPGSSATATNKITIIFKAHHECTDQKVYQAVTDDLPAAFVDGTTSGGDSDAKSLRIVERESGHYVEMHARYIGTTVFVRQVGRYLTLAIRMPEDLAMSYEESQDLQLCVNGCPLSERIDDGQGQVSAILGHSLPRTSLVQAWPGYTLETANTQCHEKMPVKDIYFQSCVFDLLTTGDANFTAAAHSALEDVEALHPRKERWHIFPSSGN
Experimental: as §1

[4] = biological target: T4, recombinant mRGMb-HIS (R&D) (mouse, UniProt Q7TQ33 49-415, limits assumed); test: ELISA, coated BMP-2/4, mRGMb-HIS and PD-L2-Ig at 10 ug/ml, detection of the hIgG part
T4 construct: Bought from R&D; not shown: HIS tag
T4 sequence (looked up): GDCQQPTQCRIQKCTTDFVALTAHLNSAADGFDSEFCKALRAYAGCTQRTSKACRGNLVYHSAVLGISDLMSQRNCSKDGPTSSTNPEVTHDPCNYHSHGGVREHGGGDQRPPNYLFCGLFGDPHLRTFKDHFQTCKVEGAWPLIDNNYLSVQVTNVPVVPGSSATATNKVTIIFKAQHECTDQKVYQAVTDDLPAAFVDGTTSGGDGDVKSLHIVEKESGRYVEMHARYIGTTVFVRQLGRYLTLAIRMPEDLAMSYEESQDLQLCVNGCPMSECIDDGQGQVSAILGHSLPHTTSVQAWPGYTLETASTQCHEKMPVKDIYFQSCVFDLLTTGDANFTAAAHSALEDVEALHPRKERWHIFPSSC
Experimental: To determine if RGMb binds PD-L2 and BMP-2/4 simultaneously, 96-well ELISA plates were coated with BMP-2/4 as above. mPD-L2-hIgG1/IgA, mPD-L2-hIgG (R&D), mPD-L1-hIgG (R&D) or control-Ig fusion proteins at 10 μg/ml were preincubated with 10 μg/ml mRGMb-HIS (R&D) or buffer alone for 15 min. at room temperature (RT), then added to the plates and incubated for 1h at 37° C. Alternatively, 10 μg/ml mRGMb-HIS (R&D) or buffer alone was added first to the plates and incubated for 1h at 37° C. After wash, mPD-L2-Ig or control-Ig fusion proteins were added and incubated for 1h at 37° C. Fab₂ goat anti-hIgG-HRP (Jackson ImmunoResearch Laboratories) at 1:10000 was used for detection.
To test if RGMb can bind both PD-L2 and BMP at the same time, an ELISA was performed to analyze the binding capacity of PD-L2-Ig fusion protein to immobilized BMP-2/4 in the presence or absence of RGMb. PD-L2 could not directly bind to BMP-2/4, but in the presence of RGMb could form a complex with BMP when RGMb and PD-L2-Ig were added simultaneously (FIG. 4A-4B) or sequentially to BMP-2/4.

[5] = biological target: T5, mouse RGMb (mRGMb) expressed on transfected cells (mouse, UniProt Q7TQ33 49-415); test: flow cytometry on mRGMb transiently transfected COS cells
T5 construct: whole, on cells; Also used for mRGMb in cell lysates (Western blot); also called DRAGON; 300-mRGMb cells
T5 sequence (looked up): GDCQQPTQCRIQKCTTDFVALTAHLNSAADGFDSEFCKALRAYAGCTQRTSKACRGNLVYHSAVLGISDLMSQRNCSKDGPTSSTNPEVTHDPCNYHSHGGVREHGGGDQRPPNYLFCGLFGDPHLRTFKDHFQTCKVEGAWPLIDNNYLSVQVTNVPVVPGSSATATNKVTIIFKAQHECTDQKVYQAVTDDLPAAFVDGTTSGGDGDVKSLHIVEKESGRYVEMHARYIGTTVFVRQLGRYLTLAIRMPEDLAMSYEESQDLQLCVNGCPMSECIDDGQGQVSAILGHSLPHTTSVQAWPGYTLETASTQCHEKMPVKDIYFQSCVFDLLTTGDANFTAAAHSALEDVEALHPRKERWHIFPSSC
Experimental: A panel of murine activated lymphocyte cDNA expression libraries were transiently transfected into COS cells using DEAE-Dextran or Lipofectamine as facilitator (Freeman et al. (1989) J. Immunol. 143:2714-2722). After 44 hours, COS cells were harvested and panned on mPD-L2-mIgG2a/IgA coated petri plates. Episomal DNA was recovered and electroporated into E. coli DH10B/P3. Spheroplast fusion was used to reintroduce the plasmids into COS cells for subsequent rounds of expression and panning. Before the second and third rounds, COS cells expressing PD-1 were removed by incubating with PD-1 mAb followed by depletion with goat anti-rat IgG magnetic beads. After the third round of panning, individual plasmids were transfected into COS cells and binding of PD-L2-Ig to RGMb was verified by flow cytometry on mRGMb transiently transfected COS cells. At least four independent mRGMb cDNA clones were isolated.

B1: mPD-L2-Ig fusion protein (construct not told at the result) (Fc fusion, mouse, UniProt Q9WUL5 20-221, looked up)
chain: LFTVTAPKEVYTVDVGSSVSLECDFDRRECTELEGIRASLQKVENDTSLQSERATLLEEQLPLGKALFHIPSVQVRDSGQYRCLVICGAAWDYKYLTVKVKASYMRIDTRILEVPGTGEVQLTCQARGYPLAEVSWQNVSVPANTSHIRTPEGLYQVTSVLRLKPQPSRNFSCMFWNAHMKELTSAIIDPLSRMEPKVPRTW
notes: extracellular domain; not shown: Ig part: the methods name mPD-L2-hIgG1/IgA, mPD-L2-mIgG2a/IgA and mPD-L2-hIgG (R&D)
binding result [1]: no binding
binding result [2]: no binding
binding result [3]: binds
binding result [4]: binds
binding result [5]: binds
